Measured values as given in paper PMC6071684, “Defining the hydrophobic interactions that drive competence stimulating peptide (CSP)-ComD binding in Streptococcus pneumoniae” (Beilstein Journal of Organic Chemistry, 2018).
Where a SMILES comes first, the peptide text is derived from it. [ ]: non-standard residue; d: D form. Phg = N[C@H](C(=O)O)c1ccccc1

What was measured:
[1] = target: ComD1 receptor (S. pneumoniae (endogenous in D39pcomX::lacZ))
[2] = target: ComD2 receptor (S. pneumoniae (endogenous in TIGR4pcomX::lacZ))
[3] = target: ComD1 receptor (Streptococcus pneumoniae serotype 2, UniProt A0A0H2ZM50); assay: cell-based
Experimental: (§1) To assess QS modulation, we utilized the β-gal reporter strains, constructed by Lau and co-worker. In these strains the lacZ gene is under the control of QS (pcomX). Thus, upon QS activation, ComE will bind pcomX and transcribe lacZ (in addition to upregulation of ComX). ComD modulation can therefore be quantified by measuring β-gal activity. The peptides were first screened for their ability to activate/inhibit the ComD1 and ComD2 receptors at high concentration (10 µM).
(§2) To examine the ability of the synthesized CSP analogs to modulate the ComD receptors, and thus the QS circuit in S. pneumoniae, β-galactosidase assays were performed using D39pcomX::lacZ (group I) and TIGR4pcomX::lacZ (group II) reporter strains as described in [19].
(§3) Bacterial growth conditions. Bacteria from a freezer stock were grown as described in [19]. Briefly, the bacteria were streaked into a THY agar plate supplemented with 5% donor horse serum and chloramphenicol at a final concentration of 4 µg/mL. The plate was incubated for 8 h in a CO2 incubator (37 °C with 5% CO2). Fresh colonies (single colony for D39pcomX::lacZ; multiple colonies for TIGR4pcomX::lacZ) were picked into sterilized cultural tubes containing 5 mL of THY broth supplemented with chloramphenicol at a final concentration of 4 µg/mL and the cultures were incubated in a CO2 incubator overnight (15 h). Overnight cultures were then diluted (1:50 for D39pcomX::lacZ; 1:10 for TIGR4pcomX::lacZ) with THY and the resulting solution was incubated in a CO2 incubator for 3–4 hours, until the bacteria reached early exponential stage (0.30–0.35 for D39pcomX::lacZ; 0.20–0.25 for TIGR4pcomX::lacZ) as determined by using a plate reader.
(§4) β-Galactosidase assay. Activation assays. […] Briefly, an initial activation screening was performed at high concentration (10 µM) for all CSP analogs. 2 µL of 1 mM solution of CSP analogs in dimethyl sulfoxide (DMSO) were added in triplicate to a clear 96-well microtiter plate. […] 2 µL of DMSO was added in triplicate and served as the negative control for both groups. Then, 198 µL of bacterial culture was added to each well containing CSP and analogs, the plate was incubated at 37 °C for 30 minutes, and the OD600nm was measured. In order to measure the β-galactosidase activity in the pneumococcal culture, the cells were lysed by incubating the culture for 30 minutes at 37 °C with 20 µL of 0.1% Triton X-100. In a new plate, 100 µL of Z-buffer solution (60.2 mM Na2HPO4, 45.8 mM NaH2PO4, 10 mM KCl, and 1.0 mM MgSO4 in 18 MΩ H2O; pH was adjusted to 7.0 and the buffer was sterilized before use) containing 2-nitrophenyl-β-D-galactopyranoside (ONPG) at a final concentration of 0.4 mg/mL was added, followed by 100 µL of lysate, and the plate was incubated for 3 hours at 37 °C. The reaction was stopped by adding 50 µL of 1 M sodium carbonate solution, and the OD420nm and OD550nm were measured using a plate reader. […] For calculation of Miller units, please see data analysis below.
(§5) Analysis of activation/inhibition data. Miller units were calculated using the following formula: […]
(§6) Abs420 is the absorbance of ortho-nitrophenol (ONP). Abs550 is the scatter from cell debris, which, when multiplied by 1.75 approximates the scatter observed at 420 nm. t is the duration of incubation with ONPG in minutes, v is volume of lysate in milliliters, and Abs600 reflects cell density.

[4] = target: ComD2 receptor (Streptococcus pneumoniae serotype 4, UniProt A0A0H2US84); assay: cell-based
Experimental: as §1, §2, §3, §4, §5, §6

ComD1 receptor, sequence (A0A0H2ZM50 entry or part of it): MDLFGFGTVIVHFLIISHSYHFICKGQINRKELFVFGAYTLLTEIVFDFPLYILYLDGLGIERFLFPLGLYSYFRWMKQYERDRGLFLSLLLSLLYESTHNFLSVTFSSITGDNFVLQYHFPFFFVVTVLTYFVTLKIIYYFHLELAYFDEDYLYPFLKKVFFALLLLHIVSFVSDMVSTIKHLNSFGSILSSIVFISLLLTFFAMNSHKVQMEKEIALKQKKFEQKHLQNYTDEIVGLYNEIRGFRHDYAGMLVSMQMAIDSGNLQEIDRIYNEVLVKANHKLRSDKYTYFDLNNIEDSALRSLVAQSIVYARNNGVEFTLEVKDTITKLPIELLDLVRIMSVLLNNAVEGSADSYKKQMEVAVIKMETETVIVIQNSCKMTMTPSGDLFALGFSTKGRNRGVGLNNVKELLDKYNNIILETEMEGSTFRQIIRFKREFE
ComD2 receptor, sequence (A0A0H2US84 entry or part of it): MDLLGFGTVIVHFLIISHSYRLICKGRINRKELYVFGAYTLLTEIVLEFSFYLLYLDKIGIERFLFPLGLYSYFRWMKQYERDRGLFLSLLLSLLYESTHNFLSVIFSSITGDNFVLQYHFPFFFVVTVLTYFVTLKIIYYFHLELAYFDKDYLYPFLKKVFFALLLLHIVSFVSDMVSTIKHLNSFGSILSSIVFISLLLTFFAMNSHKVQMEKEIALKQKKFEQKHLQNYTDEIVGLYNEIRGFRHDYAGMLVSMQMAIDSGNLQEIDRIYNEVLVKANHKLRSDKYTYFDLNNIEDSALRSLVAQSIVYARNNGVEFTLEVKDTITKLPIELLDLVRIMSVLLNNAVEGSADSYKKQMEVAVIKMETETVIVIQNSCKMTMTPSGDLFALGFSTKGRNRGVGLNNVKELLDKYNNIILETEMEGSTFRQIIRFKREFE

CSP1-I12NV (peptide)
EC50 of activation of pcomX::lacZ (β-galactosidase) in reporter strain D39pcomX::lacZ (group I, ComD1) [1]: 13.8 nM
EC50 of activation of pcomX::lacZ (β-galactosidase) in reporter strain TIGR4pcomX::lacZ (group II, ComD2) [2]: 853 nM

CSP1-F8HF (peptide)
EC50 of activation of pcomX::lacZ (β-galactosidase) in reporter strain D39pcomX::lacZ (group I, ComD1) [1]: 43.4 nM
EC50 of activation of pcomX::lacZ (β-galactosidase) in reporter strain TIGR4pcomX::lacZ (group II, ComD2) [2]: > 1000 nM

CSP1-I12NL (peptide)
EC50 of activation of pcomX::lacZ (β-galactosidase) in reporter strain D39pcomX::lacZ (group I, ComD1) [1]: 6.68 nM
EC50 of activation of pcomX::lacZ (β-galactosidase) in reporter strain TIGR4pcomX::lacZ (group II, ComD2) [2]: > 1000 nM

CSP1-I12L (peptide)
EC50 of activation of pcomX::lacZ (β-galactosidase) in reporter strain D39pcomX::lacZ (group I, ComD1) [1]: 8.56 nM
EC50 of activation of pcomX::lacZ (β-galactosidase) in reporter strain TIGR4pcomX::lacZ (group II, ComD2) [2]: 537 nM

CSP1-L4I (peptide)
EC50 of activation of pcomX::lacZ (β-galactosidase) in reporter strain D39pcomX::lacZ (group I, ComD1) [1]: 10.2 nM
EC50 of activation of pcomX::lacZ (β-galactosidase) in reporter strain TIGR4pcomX::lacZ (group II, ComD2) [2]: > 1000 nM

CSP1-F7HF (peptide)
EC50 of activation of pcomX::lacZ (β-galactosidase) in reporter strain D39pcomX::lacZ (group I, ComD1) [1]: 81.7 nM
EC50 of activation of pcomX::lacZ (β-galactosidase) in reporter strain TIGR4pcomX::lacZ (group II, ComD2) [2]: 317 nM

CSP1-L13NL (peptide)
EC50 of activation of pcomX::lacZ (β-galactosidase) in reporter strain D39pcomX::lacZ (group I, ComD1) [1]: 18.6 nM
EC50 of activation of pcomX::lacZ (β-galactosidase) in reporter strain TIGR4pcomX::lacZ (group II, ComD2) [2]: > 1000 nM

CSP1-L13NV (peptide)
EC50 of activation of pcomX::lacZ (β-galactosidase) in reporter strain D39pcomX::lacZ (group I, ComD1) [1]: 15.2 nM
EC50 of activation of pcomX::lacZ (β-galactosidase) in reporter strain TIGR4pcomX::lacZ (group II, ComD2) [2]: > 1000 nM

CSP1-L4NV (peptide)
EC50 of activation of pcomX::lacZ (β-galactosidase) in reporter strain D39pcomX::lacZ (group I, ComD1) [1]: 5.74 nM
EC50 of activation of pcomX::lacZ (β-galactosidase) in reporter strain TIGR4pcomX::lacZ (group II, ComD2) [2]: 627 nM

CSP1-L4NL (peptide)
EC50 of activation of pcomX::lacZ (β-galactosidase) in reporter strain D39pcomX::lacZ (group I, ComD1) [1]: 13.5 nM
EC50 of activation of pcomX::lacZ (β-galactosidase) in reporter strain TIGR4pcomX::lacZ (group II, ComD2) [2]: > 1000 nM

CC[C@H](C)[C@H](NC(=O)[C@@H](NC(=O)[C@H](CC(=O)O)NC(=O)[C@H](CCCNC(=N)N)NC(=O)[C@H](Cc1ccccc1)NC(=O)[C@H](Cc1ccccc1)NC(=O)[C@H](CCCCN)NC(=O)[C@H](CO)NC(=O)[C@H](CC(C)C)NC(=O)[C@H](CCCNC(=N)N)NC(=O)[C@H](CCSC)NC(=O)[C@@H](N)CCC(=O)O)c1ccccc1)C(=O)N[C@@H](CC(C)C)C(=O)N[C@@H](CCC(N)=O)C(=O)N[C@@H](CCCNC(=N)N)C(=O)N[C@@H](CCCCN)C(=O)N[C@@H](CCCCN)C(=O)O [CSP1-F11FG] (H-EMRLSKFFRD[Phg]ILQRKK-OH; N-terminus assumed)
EC50 [3]: > 1000 nM
EC50 [4]: > 1000 nM

CSP1-L13I (peptide)
EC50 of activation of pcomX::lacZ (β-galactosidase) in reporter strain D39pcomX::lacZ (group I, ComD1) [1]: 9.12 nM
EC50 of activation of pcomX::lacZ (β-galactosidase) in reporter strain TIGR4pcomX::lacZ (group II, ComD2) [2]: 705 nM

CC[C@H](C)[C@H](NC(=O)[C@H](Cc1ccccc1)NC(=O)[C@H](CC(=O)O)NC(=O)[C@H](CCCNC(=N)N)NC(=O)[C@H](CCc1ccccc1)NC(=O)[C@H](Cc1ccccc1)NC(=O)[C@H](CCCCN)NC(=O)[C@H](CO)NC(=O)[C@H](CC(C)C)NC(=O)[C@H](CCCNC(=N)N)NC(=O)[C@H](CCSC)NC(=O)[C@@H](N)CCC(=O)O)C(=O)N[C@@H](CC(C)C)C(=O)N[C@@H](CCC(N)=O)C(=O)N[C@@H](CCCNC(=N)N)C(=O)N[C@@H](CCCCN)C(=O)N[C@@H](CCCCN)C(=O)O [CSP1-F8HF]
EC50 [3]: 43.4 nM
EC50 [4]: > 1000 nM

CC[C@H](C)[C@H](NC(=O)[C@H](Cc1ccccc1)NC(=O)[C@H](CC(=O)O)NC(=O)[C@H](CCCNC(=N)N)NC(=O)[C@H](Cc1ccccc1)NC(=O)[C@H](CCc1ccccc1)NC(=O)[C@H](CCCCN)NC(=O)[C@H](CO)NC(=O)[C@H](CC(C)C)NC(=O)[C@H](CCCNC(=N)N)NC(=O)[C@H](CCSC)NC(=O)[C@@H](N)CCC(=O)O)C(=O)N[C@@H](CC(C)C)C(=O)N[C@@H](CCC(N)=O)C(=O)N[C@@H](CCCNC(=N)N)C(=O)N[C@@H](CCCCN)C(=O)N[C@@H](CCCCN)C(=O)O [CSP1-F7HF]
EC50 [3]: 81.7 nM
EC50 [4]: 317 nM
